Values joined by “and” are separate entries in the source; they are usually repeats but may differ in a detail not shown here. Equal entries are not always repeated.
The substances below were run on HEK293T (assay: median enrichment of reporter reads in eGFP-reduced (low/intermediate) vs eGFP-high sorted cells (eGFP-extension fusion abundance) (ratio); higher = stronger loss of eGFP-fusion protein abundance (more destabilising extension)).
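Further: lentiviral eGFP-IRES-mCherry reporter pool sorted by FACS 96 h post-transduction, gated on mCherry-high cells, Illumina read counts normalized per million, median across four biological replicates.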

First: CNTM [STAP1]
Second: CPADTLPPPAPSTLSWAPPYLNL [NGF]
The median enrichment of the first is higher: 0.724 for the first, 0.552 for the second.

Compared with CPAVGMAGLPGQTR [SLC25A10], “CPCSRVSQGHFAATAAFPEIKQPGAVASELRGAGGRARTLGLGHGALSLKATFLTYSLYITQRP [CTNS]” is higher in median enrichment: 0.543 for the first, 3.76 for the second.

Compared with “CPDHGQGLPPCAPQLSPSKCVLRASLFFTAAATFPHCLRCREGQVPASTGISDKPRAQPTRGSSLHAHTGYGDGGLQVSSARG [SSNA1]”, CPLNAANSASRTPNNSA [OR2AT4] is lower in median enrichment: 7.23 for the first, 0.496 for the second.

First: CPLSATHVVPSLPSFHLDVPPSPTSAPLLPRLDLKPELPLNLEYATYNMQAAKHPFCTRRLEWNCHVQ [PRR20A]
Second: CPQPGY [B3GNT7]
The median enrichment of the first is higher: 5.57 for the first, 0.431 for the second.

Compared with “CPSGPPLPLGQGNQLLRDFSCLEGAVIAPPHCPTVLLGL [FBXW4]”, “CPVPARQKEQCQPHQDRWGFESALIWVCLGAPA [SLC37A3]” is lower in median enrichment: 12.6 for the first, 5.61 for the second.

Compared with CQFKEKKM [PHTF2], “CQKHKMMQCGPPCTFCNVIAVNGKTIALLKTHL [MARCH11]” is higher in median enrichment: 0.408 for the first, 12.3 for the second.

Compared with “CQLLHILGPCLFSQDRLLKAEEPVLGAPSQTPKTCFHVPRSLLTSPNKGP [PSENEN]”, “CQVLCGAEIPCRHFACSNQQDPAPRSPGAIIMQPAVLLWRGQVTFQKTPSWMGLPFCSSPHSRISNGSLL [BCL2L11]” is lower in median enrichment: 26.4 for the first, 11 for the second.

First: CRALMSPTRKLTPNKRLPFPLGFFVLFLSKRDR [IPO5]
Second: CRDLAERWRSHQGPRDNYQEQKPLPVPH [IGSF22]
The median enrichment of the first is higher: 4.2 for the first, 3.87 for the second.

Going from CRKVSKNVNIL [C2orf49] to CRL [ACADSB], the median enrichment rises from 0.739 to 4.42.

First: CRRPPGGGSGGRCVDPTASSSY [FRAT2]
Second: CRRQKISFVQKSKMKRM [INSIG2]
The median enrichment of the first is lower: 0.875 for the first, 3.96 for the second.

Going from CRSWRTLGPRPAPIAGGR [MKNK2] to CRVAFFLL [GTF2A1], the median enrichment rises from 8.08 to 11.

Compared with CRVSLWPLSGIPGGRGGEGGTHIVNS [BDH1], “CSDGGWSLSESSALPSPGDEGNSLCFAEKILWINTEAPATPEGWRLLSLPILQSGSKPSKTAPEHCFSWVQS [C3orf52]” is higher in median enrichment: 6.12 for the first, 13.3 for the second.

Going from CSDVPFIYNNVKCNCLVP [TCP1] to “CSFPVPSHYSPKLGKGGGTYEKNSSGFITDWE [CNOT9]”, the median enrichment falls from 4.71 to 3.28.

Compared with CSFQRNMVSGQKDC [ZNF831], CSLG [MAGEC2] is lower in median enrichment: 0.731 for the first, 0.658 for the second.

First: CSLHLGGGSLGKSTQTCTTVQQQGSLLPAVPPPPVYTT [SEZ6]
Second: CSPMPAHL [CDNF]
The median enrichment of the first is higher: 19.3 for the first, 7.02 for the second.

Compared with CSQVGFA [TUSC3], CSSVYELPFHSAFRNYILAFIFNLPTYFK [ATM] is higher in median enrichment: 0.572 for the first, 8.5 for the second.

First: CSWSRG [MLIP]
Second: CTKAWA [IFNGR2]
The median enrichment of the first is higher: 6.67 for the first, 0.778 for the second.

Going from CTLGAVSSKSL [ZFC3H1] to “CTRAGGGAERGAPPPLRSLALSRPSCSLSNF [POU3F2]”, the median enrichment rises from 0.779 to 4.86.

Compared with CTTQDTHSTCMNNTGHTQARA [CCDC40], CVAGVEVLIEYDRRMTITLSAQCG [OR10H2] is higher in median enrichment: 1.14 for the first, 6.41 for the second.

First: CVARALGVLLEAPRASRIASQLPGQPTLLQPLTRTPVIRTGAPVPWSPPWAHVLTQAQQ [OVOL1]
Second: CVETCAPRRGAAVREGLCTAAPATDPVRKYLLGASPGLGLGMRWSPGLSFLSTQWVILASTCRAPCQALPTHLPV [OLFML2A]
The median enrichment of the first is higher: 8.09 for the first, 7.4 for the second.

First: CVF [LYRM7]
Second: CVSSFTDSPQPFSCLKT [DPH6]
The median enrichment of the first is lower: 0.777 for the first, 3.83 for the second.

First: CVSYSSSMLGIPTAATMILVPERAMLLFQLV [MTMR8]
Second: CVTVLDFSKTSFNTE [GABRB3]
The median enrichment of the first is higher: 23.9 for the first, 4.69 for the second.

Going from CVWGLAPCSPGPHCSHTLRLGPPSLLWC [TOM1] to CYSFQLLPLCLPG [TRIM55], the median enrichment falls from 9.33 to 7.06.

First: CYSK [FAM162B]
Second: DDD [Asp03]
The median enrichment of the first is lower: 0.641 for the first, 0.645 for the second.

Compared with DDDD [Asp04], DDDDD [Asp05] is lower in median enrichment: 0.37 for the first, 0.224 for the second.

CRFLLKLTLFHLSF [VHL] was tested, and the median enrichment was 24.3 and 30.2.
